Assay results taken from paper PMC4946995 (Cell, 2016).

T1: Hrd1-SBP (S. cerevisiae, UniProt Q08109 1-551)
T1 sequence (looked up): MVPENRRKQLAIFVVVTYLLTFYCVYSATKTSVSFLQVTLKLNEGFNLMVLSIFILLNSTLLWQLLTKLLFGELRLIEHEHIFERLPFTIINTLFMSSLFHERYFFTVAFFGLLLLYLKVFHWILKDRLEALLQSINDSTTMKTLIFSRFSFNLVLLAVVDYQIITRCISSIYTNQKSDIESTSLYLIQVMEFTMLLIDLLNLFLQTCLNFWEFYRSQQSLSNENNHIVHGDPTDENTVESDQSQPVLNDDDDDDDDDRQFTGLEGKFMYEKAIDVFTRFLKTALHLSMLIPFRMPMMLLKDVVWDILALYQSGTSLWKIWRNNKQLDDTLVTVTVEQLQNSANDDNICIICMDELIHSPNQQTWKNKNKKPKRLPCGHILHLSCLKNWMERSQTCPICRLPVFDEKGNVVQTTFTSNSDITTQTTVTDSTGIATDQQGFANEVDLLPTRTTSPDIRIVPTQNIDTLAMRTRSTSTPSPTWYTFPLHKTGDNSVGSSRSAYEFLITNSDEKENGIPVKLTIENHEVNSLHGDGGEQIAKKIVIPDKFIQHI


How the values were obtained:
[1] = molecular target: Hrd1-SBP (S. cerevisiae) (UniProt Q08109); test: pull-down
[2] = molecular target: T1, Hrd1-SBP; test: pull-down

Kd [1] [nM]	Kd [2] [nM]	Molecule
20	–	misfolded carboxypeptidase Y (CPY*) (from UniProt P00729 21-532) (natural protein)
–	~30	CPY*-TM2 (other, DyLight800 at the C-terminus, attached with sortase (GGGC-coupled fluorophore)) ISLQRPLGLDKDVLLQAAEKFGLDLDLDHLLKELDSNVLDAWAQIEHLYPNQVMSLETSTKPKFPEAIKTKKDWDFVVKNDAIENYQLRVNKIKDPKILGIDPNVTQYTGYLDVEDEDKHFFFWTFESRNDPAKDPVILWLNGGPGCSSLTGLFFELGPSSIGPDLKPIGNPYSWNSNATVIFLDQPVNVGFSYSGSSGVSNTVAAGKDVYNFLELFFDQFPEYVNKGQDFHIARESYAGHYIPVFASEILSHKDRNFNLTSVLIGNGLTDPLTQYNYYEPMACGEGGEPSVLPSEECSAMEDSLERCLGLIESCYDSQSVWSCVPATIYCNNAQLAPYQRTGRNVYDIRKDCEGGNLCYPTLQDIDDYLNQDYVKEAVGAEVDHYESCNFDINRNFLFAGDWMKPYHTAVTDLLNQDLPILVYAGDKDFICNWLGNKAWTDVLPWKYDEEFASQKVRNWTASITDEVAGEVKSYKHFTYLRVFNGGHMVPFDVPENALSMVNEWIHGGFSLMLLFFWIPLTLVLLLCFTLSNL
–	~110	CPY-TM2 (other, DyLight800 at the C-terminus, attached with sortase (GGGC-coupled fluorophore)) ISLQRPLGLDKDVLLQAAEKFGLDLDLDHLLKELDSNVLDAWAQIEHLYPNQVMSLETSTKPKFPEAIKTKKDWDFVVKNDAIENYQLRVNKIKDPKILGIDPNVTQYTGYLDVEDEDKHFFFWTFESRNDPAKDPVILWLNGGPGCSSLTGLFFELGPSSIGPDLKPIGNPYSWNSNATVIFLDQPVNVGFSYSGSSGVSNTVAAGKDVYNFLELFFDQFPEYVNKGQDFHIAGESYAGHYIPVFASEILSHKDRNFNLTSVLIGNGLTDPLTQYNYYEPMACGEGGEPSVLPSEECSAMEDSLERCLGLIESCYDSQSVWSCVPATIYCNNAQLAPYQRTGRNVYDIRKDCEGGNLCYPTLQDIDDYLNQDYVKEAVGAEVDHYESCNFDINRNFLFAGDWMKPYHTAVTDLLNQDLPILVYAGDKDFICNWLGNKAWTDVLPWKYDEEFASQKVRNWTASITDEVAGEVKSYKHFTYLRVFNGGHMVPFDVPENALSMVNEWIHGGFSLMLLFFWIPLTLVLLLCFTLSNL
–	~120	CPY-TM (other, DyLight800 at the C-terminus, attached with sortase (GGGC-coupled fluorophore)) ISLQRPLGLDKDVLLQAAEKFGLDLDLDHLLKELDSNVLDAWAQIEHLYPNQVMSLETSTKPKFPEAIKTKKDWDFVVKNDAIENYQLRVNKIKDPKILGIDPNVTQYTGYLDVEDEDKHFFFWTFESRNDPAKDPVILWLNGGPGCSSLTGLFFELGPSSIGPDLKPIGNPYSWNSNATVIFLDQPVNVGFSYSGSSGVSNTVAAGKDVYNFLELFFDQFPEYVNKGQDFHIAGESYAGHYIPVFASEILSHKDRNFNLTSVLIGNGLTDPLTQYNYYEPMACGEGGEPSVLPSEECSAMEDSLERCLGLIESCYDSQSVWSCVPATIYCNNAQLAPYQRTGRNVYDIRKDCEGGNLCYPTLQDIDDYLNQDYVKEAVGAEVDHYESCNFDINRNFLFAGDWMKPYHTAVTDLLNQDLPILVYAGDKDFICNWLGNKAWTDVLPWKYDEEFASQKVRNWTASITDEVAGEVKSYKHFTYLRVFNGGHMVPFDVPENALSMVNEWIHGGFSLNYGIFICYIAFNYIAGVFFYWLA
